Values belong to the binder of their own block, whether it stands above or below them.
Legend:
human PSMA [1] = biological target: T1, human PSMA (human, UniProt Q04609 44-750, limits assumed); experiment: binding kinetics, uTCE
T1 construct: also called huPSMA; hPSMA

[2] = biological target: T2, cynomolgus monkey CD3 epsilon (cynomolgus monkey, UniProt Q95LI5 22-117, limits assumed); experiment: BLI or SPR
T2 construct: also called cyCD3e; cyno CD3
T2 sequence (looked up): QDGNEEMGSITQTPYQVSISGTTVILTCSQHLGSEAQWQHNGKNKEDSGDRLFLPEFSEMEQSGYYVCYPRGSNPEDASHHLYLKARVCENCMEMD

human CD3 epsilon = biological target: T3, human CD3 epsilon (human, UniProt P07766 23-126, limits assumed); experiment: BLI or SPR
T3 construct: also called huCD3e

cynomolgus monkey PSMA = biological target: T4, cynomolgus monkey PSMA (cynomolgus monkey, UniProt A0A2K5VNZ0 44-750); experiment: BLI or SPR
T4 construct: also called cyPSMA; cyno PSMA

human PSMA [3] = biological target: T1, human PSMA; experiment: BLI or SPR

T3 sequence (P07766 23-126 limits assumed): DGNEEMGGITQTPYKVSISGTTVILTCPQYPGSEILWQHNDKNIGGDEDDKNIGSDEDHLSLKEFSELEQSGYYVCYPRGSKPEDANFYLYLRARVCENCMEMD
T1 sequence (Q04609 44-750 limits assumed): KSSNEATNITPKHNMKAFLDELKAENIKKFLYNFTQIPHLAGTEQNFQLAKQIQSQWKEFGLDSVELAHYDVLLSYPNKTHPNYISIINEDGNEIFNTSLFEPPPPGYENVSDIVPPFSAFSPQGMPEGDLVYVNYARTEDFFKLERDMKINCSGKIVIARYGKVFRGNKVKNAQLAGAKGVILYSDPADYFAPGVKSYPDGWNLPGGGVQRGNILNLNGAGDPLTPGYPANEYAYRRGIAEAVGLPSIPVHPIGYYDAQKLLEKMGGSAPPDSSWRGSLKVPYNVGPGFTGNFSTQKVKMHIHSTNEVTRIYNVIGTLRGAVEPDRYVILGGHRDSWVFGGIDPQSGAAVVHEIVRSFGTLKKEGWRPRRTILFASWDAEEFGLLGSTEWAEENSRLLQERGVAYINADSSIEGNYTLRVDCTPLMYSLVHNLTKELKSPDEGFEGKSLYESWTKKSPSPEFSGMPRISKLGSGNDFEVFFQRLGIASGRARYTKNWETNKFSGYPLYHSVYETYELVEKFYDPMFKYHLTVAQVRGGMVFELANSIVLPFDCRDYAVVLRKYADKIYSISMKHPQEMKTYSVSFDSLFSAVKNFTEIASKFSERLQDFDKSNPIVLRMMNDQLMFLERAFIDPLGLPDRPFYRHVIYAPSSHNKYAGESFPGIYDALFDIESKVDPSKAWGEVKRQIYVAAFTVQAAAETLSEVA

B1: uTCE PSMA-VHH; CB01B02R3, CD3.23 (bispecific antibody)
chain: LTGPATSGSETPGTQVQLVESGGGLVQAGDSLRLSCVTSGRTFDVYAMGWFRQAPGKERELVAAINWSGSNKFHADSVKGRFTISRDNAWKTLSLQMNSLKPEDTAVYFCAASTRLYGTTWYEFNDSDYWGQGTQVTVSSGGGGSGGGSELVVTQEPSLTVSPGGTVTLTCRSSNGAVTSSNYANWVQQKPGQAPRGLIGGTNKRAPGTPARFSGSLLGGKAALTLSGVQPEDEAVYYCALWYPNLWVFGGGTKLTVLGATPPETGAETESPGETTGGSAESEPPGEGEVQLLESGGGIVQPGGSLKLSCAASGFTFNTYAMNWVRQAPGKGLEWVARIRSKYNNYATYYADSVKDRFTISRDDSKNTVYLQMNNLKTEDTAVYYCVRHENFGNSYVSWFAHWGQGTLVTVSSGTAEAASASGEAGRSANHTPAG
notes: also called PSMA.3
- Kd (human PSMA [1]): 1.15 nM
- koff (human PSMA [1]): 0.000205 s⁻¹
- kon (human PSMA [1]): 178000 M⁻¹ s⁻¹

B4: AMX-500(1x-N) (bispecific antibody)
chain: ASSATPESGPGTSTEPSEGSAPGTSESATPESGPGSGPGTSESATPGTSESATPESGPGSEPATSGSETPGTSESATPESGPGTSTEPSEGSAPGSPAGSPTSTEEGTSESATPESGPGSEPATSGSETPGTSESATPESGPGSPAGSPTSTEEGSPAGSPTSTEEGTSTEPSEGSAPGTSESATPESGPGTSESATPESGPGTSESATPESGPGSEPATSGSETPGSEPATSGSETPGSPAGSPTSTEEGTSTEPSEGSAPGTSTEPSEGSAPGSEPATSGSETPGTSESATPEAGRSASHTPAGLTGPGTSESATPESQVQLVESGGGVVQPGRSLRLSCAASGRTFGIYVWGWFRQAPGKEREFVGAMSWSGSNRKVSDSVKGRFTISRDNSKNTLYLQMNSLRAEDTAVYYCAASNKEYGRTWYDFNESDYWGQGTQVTVSSGGGGSGGGSELVVTQEPSLTVSPGGTVTLTCRSSNGAVTSSNYANWVQQKPGQAPRGLIGGTNKRAPGTPARFSGSLLGGKAALTLSGVQPEDEAVYYCALWYPNLWVFGGGTKLTVLSESATPESGPGTSPGATPESGPGTSESATPEVQLVESGGGIVQPGGSLRLSCAASGFTFSTYAMNWVRQAPGKGLEWVGRIRTKRNNYATYYADSVKGRFTISRDDSKNTVYLQMNSLKTEDTAVYYCVRHENFGNSYVSWFAHWGQGTLVTVSSGTATPESGPG
notes: Lacks the mask linked to the CD3 domain
- Kd (cynomolgus monkey PSMA): 2400 nM
- koff (cynomolgus monkey PSMA): 0.039 s⁻¹
- kon (cynomolgus monkey PSMA): 16000 M⁻¹ s⁻¹
- Kd (human PSMA [3]): 230 nM
- koff (human PSMA [3]): 0.012 s⁻¹
- kon (human PSMA [3]): 50000 M⁻¹ s⁻¹
- Kd [2]: 38 nM
- koff [2]: 0.1 s⁻¹
- kon [2]: 2.9e+06 M⁻¹ s⁻¹
- Kd (human CD3 epsilon): 46.3 nM
- koff (human CD3 epsilon): 0.1 s⁻¹
- kon (human CD3 epsilon): 2.8e+06 M⁻¹ s⁻¹

Results, then the binder that gave them:

- Kd (human PSMA [1]): 55.7 nM
- koff (human PSMA [1]): 0.000539 s⁻¹
- kon (human PSMA [1]): 9670 M⁻¹ s⁻¹
B2: uTCE PSMA-VHH; P01G03R3, CD3.23 (bispecific antibody)
chain: LTGPATSGSETPGTEVQLVESGGGLVQAGGSLRLSCVVSGIAFSPYHMAWYRQAPGKQHEWVAVITTGGTTAYNETVEGRFSISRDNARSTVYLQMNSLKPEDTAVYYCNIYGLSLKWGQGTQVTVSSGGGGSGGGSELVVTQEPSLTVSPGGTVTLTCRSSNGAVTSSNYANWVQQKPGQAPRGLIGGTNKRAPGTPARFSGSLLGGKAALTLSGVQPEDEAVYYCALWYPNLWVFGGGTKLTVLGATPPETGAETESPGETTGGSAESEPPGEGEVQLLESGGGIVQPGGSLKLSCAASGFTFNTYAMNWVRQAPGKGLEWVARIRSKYNNYATYYADSVKDRFTISRDDSKNTVYLQMNNLKTEDTAVYYCVRHENFGNSYVSWFAHWGQGTLVTVSSGTAEAASASGEAGRSANHTPAG

- Kd [2]: 70 nM
- Kd (human CD3 epsilon): 90 nM
B3: AMX-500 (bispecific antibody)
chain: ASSATPESGPGTSTEPSEGSAPGTSESATPESGPGSGPGTSESATPGTSESATPESGPGSEPATSGSETPGTSESATPESGPGTSTEPSEGSAPGSPAGSPTSTEEGTSESATPESGPGSEPATSGSETPGTSESATPESGPGSPAGSPTSTEEGSPAGSPTSTEEGTSTEPSEGSAPGTSESATPESGPGTSESATPESGPGTSESATPESGPGSEPATSGSETPGSEPATSGSETPGSPAGSPTSTEEGTSTEPSEGSAPGTSTEPSEGSAPGSEPATSGSETPGTSESATPEAGRSASHTPAGLTGPGTSESATPESQVQLVESGGGVVQPGRSLRLSCAASGRTFGIYVWGWFRQAPGKEREFVGAMSWSGSNRKVSDSVKGRFTISRDNSKNTLYLQMNSLRAEDTAVYYCAASNKEYGRTWYDFNESDYWGQGTQVTVSSGGGGSGGGSELVVTQEPSLTVSPGGTVTLTCRSSNGAVTSSNYANWVQQKPGQAPRGLIGGTNKRAPGTPARFSGSLLGGKAALTLSGVQPEDEAVYYCALWYPNLWVFGGGTKLTVLSESATPESGPGTSPGATPESGPGTSESATPEVQLVESGGGIVQPGGSLRLSCAASGFTFSTYAMNWVRQAPGKGLEWVGRIRTKRNNYATYYADSVKGRFTISRDDSKNTVYLQMNSLKTEDTAVYYCVRHENFGNSYVSWFAHWGQGTLVTVSSGTATPESGPGEAGRSASHTPAGLTGPATPESGPGTSESATPESGPGSPAGSPTSTEEGTSESATPESGPGSEPATSGSETPGTSESATPESGPGTSTEPSEGSAPGTSTEPSEGSAPGTSTEPSEGSAPGTSTEPSEGSAPGTSTEPSEGSAPGTSTEPSEGSAPGSPAGSPTSTEEGTSTEPSEGSAPGTSESATPESGPGSEPATSGSETPGTSESATPESGPGSEPATSGSETPGTSESATPESGPGTSTEPSEGSAPGTSESATPESGPGSPAGSPTSTEEGSPAGSPTSTEEGSPAGSPTSTEEGTSESATPESGPGTSTEPSEGSAPGTSESATPESGPGSEPATSGSETPGTSESATPESGPGSEPATSGSETPGTSESATPESGPGTSTEPSEGSAPGSPAGSPTSTEEGTSESATPESGPGSEPATSGSETPGTSESATPESGPGSPAGSPTSTEEGSPAGSPTSTEEGTSTEPSEGSAPGTSESATPESGPGTSESATPESGPGTSPSATPESGPGSEPATSGSETPGSEPATSGSETPGSPAGSPTSTEEGTSTEPSEGSAPGTSTEPSEGSAPGSEPATSGSETPGTSESAGEPEA
notes: also called AC3896; AMX-500-P4

- Kd (human PSMA [1]): 0.6 nM
- koff (human PSMA [1]): 0.000156 s⁻¹
- kon (human PSMA [1]): 261000 M⁻¹ s⁻¹
B5: uTCE PSMA-VHH; P01E02R3, CD3.23 (bispecific antibody)
chain: LTGPATSGSETPGTEVQLVESGGGLVQAGGSLKLSCVANGPTFSTYAMAWFRQAPGKEHEFVAAITGDGDTTNNADSVKGRFTISRDNAKNRVYLQLNSLKPEDTAAYYCAAGVHHTYTIPRLWLYWGQGTQVTVSSGGGGSGGGSELVVTQEPSLTVSPGGTVTLTCRSSNGAVTSSNYANWVQQKPGQAPRGLIGGTNKRAPGTPARFSGSLLGGKAALTLSGVQPEDEAVYYCALWYPNLWVFGGGTKLTVLGATPPETGAETESPGETTGGSAESEPPGEGEVQLLESGGGIVQPGGSLKLSCAASGFTFNTYAMNWVRQAPGKGLEWVARIRSKYNNYATYYADSVKDRFTISRDDSKNTVYLQMNNLKTEDTAVYYCVRHENFGNSYVSWFAHWGQGTLVTVSSGTAEAASASGEAGRSANHTPAG

Source: patent publication US20260055205A1 (published 2026)
